The test has as its target Epitope-tagged recombinant LOX-1 protein (NM002543, aa 61-273, 6xHis); pcDNA4, Igk secretion signal; secreted … (UniProt P78380 61-273). The experiment in a line: SPR (Biacore), FVa immobilised on the chip, LOX-1 0-400 nM flowed; equilibrium (Req) analysis. How it is done: Note that the Igκ secretion signal was obtained by pSecTag/FRT/V5-HisTOPO (Invitrogen). […] The surface plasmon resonance was performed using Biacore (manufactured by GE Healthcare, Inc.).
(In general: SPR reads the build-up and loss of mass on a sensor chip optically.)

B1: Human Factor Va (HCVA-0110, Haematologic Technologies Inc.) (other)
H chain: AQLRQFYVAAQGISWSYRPEPTNSSLNLSVTSFKKIVYREYEPYFKKEKPQSTISGLLGPTLYAEVGDIIKVHFKNKADKPLSIHPQGIRYSKLSEGASYLDHTFPAEKMDDAVAPGREYTYEWSISEDSGPTHDDPPCLTHIYYSHENLIEDFNSGLIGPLLICKKGTLTEGGTQKTFDKQIVLLFAVFDESKSWSQSSSLMYTVNGYVNGTMPDITVCAHDHISWHLLGMSSGPELFSIHFNGQVLEQNHHKVSAITLVSATSTTANMTVGPEGKWIISSLTPKHLQAGMQAYIDIKNCPKKTRNLKKITREQRRHMKRWEYFIAAEEVIWDYAPVIPANMDKKYRSQHLDNFSNQIGKHYKKVMYTQYEDESFTKHTVNPNMKEDGILGPIIRAQVRDTLKIVFKNMASRPYSIYPHGVTFSPYEDEVNSSFTSGRNNTMIRAVQPGETYTYKWNILEFDEPTENDAQCLTRPYYSDVDIMRDIASGLIGLLLICKSRSLDRRGIQRAADIEQQAVFAVFDENKSWYLEDNINKFCENPDEVKRDDPKFYESNIMSTINGYVPESITTLGFCFDDTVQWHFCSVGTQNEILTIHFTGHSFIYGKRHEDTLTLFPMRGESVTVTMDNVGTWMLTSMNSSPRSKKLRLKFRDVKCIPDDDEDSYEIFEPPESTVMATRKMHDRLEPEDEESDADYDYQNRLAAALGIR
L chain: SNNGNRRNYYIAAEEISWDYSEFVQRETDIEDSDDIPEDTTYKKVVFRKYLDSTFTKRDPRGEYEEHLGILGPIIRAEVDDVIQVRFKNLASRPYSLHAHGLSYEKSSEGKTYEDDSPEWFKEDNAVQPNSSYTYVWHATERSGPESPGSACRAWAYYSAVNPEKDIHSGLIGPLLICQKGILHKDSNMPMDMREFVLLFMTFDEKKSWYYEKKSRSSWRLTSSEMKKSHEFHAINGMIYSLPGLKMYEQEWVRLHLLNIGGSQDIHVVHFHGQTLLENGNKQHQLGVWPLLPGSFKTLEMKASKPGWWLLNTEVGENQRAGMQTPFLIMDRDCRMPMGLSTGIISDSQIKASEFLGYWEPRLARLNNGGSYNAWSVEKLAAEFASKPWIQVDMQKEVIITGIQTQGAKHYLKSCYTTEFYVAYSSNQINWQIFKGNSTRNVMYFNGNSDASTIKENQFDPPIVARYIRISPTRAYNRPTLRLELQGCEVNGCSTPLGMENGKIENKQITASSFKKSWWGDYWEPFRARLNAQGRVNAWQAKANNNKQWLEIDLLKIKKITAIITQGCKSLSSEMYVKSYTIHYSEQGVEWKPYRLKSSMVDKIFEGNTNTKGHVKNFFNPPIISRFIRVIPKTWNQSIALRLELFGCDIY
modifications: Two-chain, plasma-derived glycoprotein. The H and L chains are held together non-covalently through Ca2+. Glycosylation and tyrosine sulfation are not carried by the letters.
notes: also called FVa
Broadly, the Kd is a measure of binding affinity in units of concentration. As for B1, the Kd worked out at 22.1 nM.
